Assay results: the Immune Epitope Database (IEDB)

Experiments:
Experiment in all cases: IEDB peptide-MHC binding, purified MHC/competitive/fluorescence; filed as Kd, often an IC50 or EC50 that approximates it; ≥ and ≤ were set here for values at or beyond the usual limits of such assays
Details in all cases: source organism: Rickettsia bellii OSU 85-389
[1] = target: HLA-B*14:02
[2] = target: HLA-A*66:01
[3] = target: HLA-A*30:02
[4] = target: HLA-A*23:01
[5] = target: HLA-B*08:01
[6] = target: HLA-A*30:01
[7] = target: HLA-B*07:02
[8] = target: HLA-A*01:01

Measured: Kd

EDFEIFYNL
≥ 5 µM: all assays above
